The values that follow come from US20090281024A1 (RAPTOR PHARMACEUTICALS, published 2009).

One may read the Kd as a measure of binding affinity in units of concentration.

Assay [1] deals with T1, RAP d3 E251K, K256A, K270E (human, UniProt P30533 235-353).
T1 construct: range 201-319 (mature RAP numbering); Forward mutant of m1; same construct; also called RAP E251K, K256A, K270E; not shown: N-terminal hexahistidine and S-peptide tags of pET30(+)a
T1 sequence (looked up): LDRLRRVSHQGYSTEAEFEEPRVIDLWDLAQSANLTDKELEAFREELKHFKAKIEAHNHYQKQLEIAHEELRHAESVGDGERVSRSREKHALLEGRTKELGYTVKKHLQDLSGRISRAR
Briefly: solid-phase assay, coated CR protein. As to the method:
(§1) Wells were washed with TBSTC and bound ligands detected with polyclonal anti-RAP (BP41/42, 1:1,000, BioMarin). Excess primary antibody was removed and wells washed before incubation with the secondary antibody, HRP-conjugated goat anti rabbit IgG (Bio-Rad). After washing, TMB substrate solutions (Bio-Rad) were added to detect HRP. Color development was stopped with 1N HCl. Absorption at 450 nm was measured with a microplate spectrophotometer (Molecular Devices). Data were plotted and Kd values derived by non-linear regression with the assumption of single-site binding (GraphPad Prism).
(§2) Next, the binding of RAP d3 and MegaRAP1 d3 proteins to LRP1 CR3-5 and LRP2 CR89 was assessed. […] In all cases, 10 mM EGTA prevented binding of both RAP d3 and MegaRAP1 d3 to CR proteins. Since calcium was the only divalent metal ion present in the binding buffer, this observation is consistent with both RAP d3 and MegaRAP1 d3 binding to calcium-loaded CR pairs. […] Therefore, wild-type RAP d3 and MegaRAP1 d3 have inverted binding preferences for these two receptor fragments.

In assay [2] the target is T2, MegaRAP1 d3 (human, UniProt P30533 235-353).
T2 construct: range 201-319 (mature RAP numbering); d3 of the variant selected on LRP2 CR89; also called RAPv2A d3; RAP v2A; not shown: N-terminal hexahistidine and S-peptide tags of pET30(+)a
T2 sequence (looked up): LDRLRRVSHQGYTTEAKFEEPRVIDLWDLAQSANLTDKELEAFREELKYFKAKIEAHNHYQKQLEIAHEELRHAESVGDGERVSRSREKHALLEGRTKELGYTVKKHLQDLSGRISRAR
Briefly: solid-phase assay, coated CR protein. Here is the method: as §1, §2

The target of assay [3] is T2, MegaRAP1 d3. The assay can be described thus: solid-phase assay, coated CR protein. As to the method:
as §1
One premise of this work was that amino acids at A, C, A′ and C′ within the calcium-binding loops of a CR pair were key determinants of binding affinity for RAP and would be similarly important for binding of RAP variants. To test this idea, mutant LRP2 CR89 were prepared in which the native, non-canonical residues at these positions were sequentially substituted with the non-native, canonical residues. As defined above, the A, C, A′, C′ string for LRP2 CR89 is YVWR. Mutants included LRP2 CR89Y1042W (WVWR), LRP2 CR89V1047D (YDWR), LRP2 CR89R1088D (YVWD), LRP2 CR89V1047D R1088D (YDWD), LRP2 CR89 Y1042W V1047D R1088D (WDWD), LRP2 CR89Y1042W V1047D (WDWR), LRP2 CR89Y1042W R1088D (WVWD). Binding to both RAP d3 and MegaRAP1 d3 were measured for each LRP2 CR89 mutant by solid-phase assay. […] The A′ position in LRP2 CR89 is a tryptophan, the canonical residue for wild-type RAP d3 binding, and was not mutated in our studies. […] We did see a small increase in binding of RAP d3 to the WVWD and WDWD combinations at A, C, A′ and C′.
The source holds these as a separate data set.

Assay [4] concerns the target T2, MegaRAP1 d3. The assay can be described thus: solid-phase assay, coated CR protein (same value as Table 1).

B1: LRP2 CR89 (receptor)
chain: not shown
notes: domain: CR89; Limits of the fragment are set only by the primers LRP2CR8F and LRP2CR9R; also called YVWR; L2 CR89; not shown: N-terminal hexahistidine and S-peptide tags of pET30(+)a
With B1, the dissociation constant Kd was 114 nM in assay [1], 38 nM in assay [2], 33 nM in assay [3] and 38 nM in assay [4].
